Target: T1, A/California/04/2009 (H1CA0409) recombinant HA (Influenza A virus, A/California/04/2009 …, UniProt C3W5S1, strain)
T1 construct: source: supplied by BEI Resources
Assay: ELISA
Conditions: both partners purified

B1: F10 scFv (wild type) (scFv, V domains shown)
VH: QVQLVQSGAEVKKPGSSVKVSCTSSEVTFSSFAISWVRQAPGQGLEWLGGISPMFGTPNYAQKFQGRVTITADQSTRTAYMDLRSLRSEDTAVYYCARSPSYICSGGTCVFDHWGQGTLVTVSS
VL: QPGLTQPPSVSKGLRQTATLTCTGNSNNVGNQGAAWLQQHQGHPPKLLSYRNNDRPSGISERFSASRSGNTASLTITGLQPEDEADYYCSTWDSSLSAVVFGGGTKLTVL
notes: also called F10 wt; construct #1; source: E. coli BL21 (DE3), purified (streptactin beads)
- binding result: binds

From article PMC4006906 (PLoS Pathogens, 2014)
